Test results as given in patent US9549967B2, “Regulation of sodium channels by PLUNC proteins” (The University of North Carolina at Chapel Hill, priority 2009, dated 2017).

Target: T1, α and γ ENaC (Rattus norvegicus, UniProt P37089+P37091)
T1 construct: expressed in transfected cells; host or cells: Xenopus laevis oocytes (cRNA injection)
T1 sequence (P37089 1-698): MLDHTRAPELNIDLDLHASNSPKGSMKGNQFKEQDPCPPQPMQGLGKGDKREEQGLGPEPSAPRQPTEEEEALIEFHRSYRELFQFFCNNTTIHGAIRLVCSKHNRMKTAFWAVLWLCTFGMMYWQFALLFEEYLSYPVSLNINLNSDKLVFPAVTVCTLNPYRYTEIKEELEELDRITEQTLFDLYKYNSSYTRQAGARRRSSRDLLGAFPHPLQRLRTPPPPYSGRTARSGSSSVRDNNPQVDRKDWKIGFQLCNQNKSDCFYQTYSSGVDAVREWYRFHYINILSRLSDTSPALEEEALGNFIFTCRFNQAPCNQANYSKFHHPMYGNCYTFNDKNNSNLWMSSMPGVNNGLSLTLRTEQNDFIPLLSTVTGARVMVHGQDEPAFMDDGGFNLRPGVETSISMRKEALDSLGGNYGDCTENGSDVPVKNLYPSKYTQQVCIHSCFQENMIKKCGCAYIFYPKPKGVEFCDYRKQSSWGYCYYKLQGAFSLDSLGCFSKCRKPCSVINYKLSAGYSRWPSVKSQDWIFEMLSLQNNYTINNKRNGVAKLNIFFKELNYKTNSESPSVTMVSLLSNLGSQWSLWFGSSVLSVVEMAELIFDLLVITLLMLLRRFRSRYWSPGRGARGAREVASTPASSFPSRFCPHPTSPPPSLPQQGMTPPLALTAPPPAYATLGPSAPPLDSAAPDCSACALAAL
T1 sequence (P37090 1-638 partner): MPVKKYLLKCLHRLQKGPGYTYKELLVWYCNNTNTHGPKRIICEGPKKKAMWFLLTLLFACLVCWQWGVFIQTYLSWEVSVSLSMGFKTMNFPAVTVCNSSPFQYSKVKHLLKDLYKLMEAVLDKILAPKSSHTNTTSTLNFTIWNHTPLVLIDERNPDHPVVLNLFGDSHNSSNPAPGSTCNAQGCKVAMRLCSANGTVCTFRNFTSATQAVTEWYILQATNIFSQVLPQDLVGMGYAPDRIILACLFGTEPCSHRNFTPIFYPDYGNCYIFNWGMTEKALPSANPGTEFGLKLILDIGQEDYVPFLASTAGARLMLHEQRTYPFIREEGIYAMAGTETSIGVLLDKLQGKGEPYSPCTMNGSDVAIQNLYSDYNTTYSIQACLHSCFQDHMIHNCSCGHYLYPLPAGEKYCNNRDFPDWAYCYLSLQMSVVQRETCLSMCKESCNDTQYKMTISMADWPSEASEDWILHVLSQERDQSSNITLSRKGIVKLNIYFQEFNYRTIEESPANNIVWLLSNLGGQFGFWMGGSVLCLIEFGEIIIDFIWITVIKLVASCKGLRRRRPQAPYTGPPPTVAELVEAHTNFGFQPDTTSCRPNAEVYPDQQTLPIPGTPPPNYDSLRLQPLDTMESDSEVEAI
T1 sequence (P37091 1-650): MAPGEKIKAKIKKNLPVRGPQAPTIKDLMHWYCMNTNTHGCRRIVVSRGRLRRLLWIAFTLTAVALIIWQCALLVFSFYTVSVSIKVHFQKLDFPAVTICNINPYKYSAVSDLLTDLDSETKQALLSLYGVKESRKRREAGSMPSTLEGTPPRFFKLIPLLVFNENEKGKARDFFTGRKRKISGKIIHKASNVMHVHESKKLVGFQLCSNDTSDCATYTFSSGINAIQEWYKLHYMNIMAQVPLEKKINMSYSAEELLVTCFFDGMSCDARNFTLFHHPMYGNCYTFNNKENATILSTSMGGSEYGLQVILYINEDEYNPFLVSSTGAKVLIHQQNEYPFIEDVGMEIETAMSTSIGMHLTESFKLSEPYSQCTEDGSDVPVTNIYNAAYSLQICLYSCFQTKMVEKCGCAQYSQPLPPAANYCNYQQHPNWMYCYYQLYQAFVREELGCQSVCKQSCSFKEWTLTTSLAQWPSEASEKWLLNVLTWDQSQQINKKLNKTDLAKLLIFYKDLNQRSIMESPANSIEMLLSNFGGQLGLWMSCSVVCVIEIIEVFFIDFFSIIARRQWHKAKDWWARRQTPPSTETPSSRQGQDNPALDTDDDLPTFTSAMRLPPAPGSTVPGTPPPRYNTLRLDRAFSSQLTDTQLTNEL
Experiment: ENaC cleavage by CAP2 in Xenopus oocytes (Western blot, V5 antibody)
Type: cell-based
Conditions: αβγENaC, CAP2 and SPLUNC1 co-expressed in oocytes
Procedure: Western Blotting: Airway surface liquid collected as described above was also placed in protease-inhibitor cocktail (Roche) for Western blotting. The protein concentration was determined using the BCA Assay (Pierce). To obtain SPLUNC1 from Xenopus oocytes, oocytes were lysed in Laemmli buffer or oocyte media was directly sampled and placed in Laemmli buffer. Proteins were resolved using SDS-PAGE and transferred to a Polyvinylidene Fluoride (PVDF) membrane. The membrane was then probed using αSplunc1 or αV5 antibodies and a Donkey anti-Mouse HRP antibody (R&D). The blots were then incubated with ECL reagents (Pierce).
Co-Immunoprecipitation: Xenopus oocytes were injected with either HA-N-Terminus or V5-C-Terminus (HA-NT/V5-CT) tagged subunits in combination with wild type (WT) untagged rat αβγENaC subunits (0.3 ng cRNA each) with or without V5-tagged SPLUNC1 and CAP2 (1 ng cRNA each). After 24 h, 40 eggs per experimental condition were lysed with buffer containing (in mM): 20 Tris, 50 NaCl, 50 NaF, 10 β-glycerophosphate, 5 Na4P2O7 pyrophosphate, 1 EDTA, pH 7.5 and protease inhibitors (complete, Roche), aprotinin (Sigma). Cell lysates were prepared by passing the eggs through a 27 G1/2 needle twice and by centrifugation at 3,600 rpm for 10 minutes at 4° C. Supernatants were transferred to new tubes and samples were spun at 14,000 rpm for 20 minutes at 4° C. […]

B1: SPLUNC1: human SPLUNC1, 256 amino acid secreted PLUNC protein (SEQ ID NO:1); rSPLUNC1 = V5/6His-tagged protein purified from HEK293 media (protein, listed as Homo sapiens)
chain: MFQTGGLIVFYGLLAQTMAQFGGLPVPLDQTLPLNVNPALPLSPTGLAGSLTNALSNGLLSGGLLGILENLPLLDILKPGGGTSGGLLGGLLGKVTSVIPGLNNIIDIKVTDPQLLELGLVQSPDGHRLYVTIPLGIKLQVNTPLVGASLLRLAVKLDITAEILAVRDKQERIHLVLGDCTHSPGSLQISLLDGLGPLPIQGLLDSLTGILNKVLPELVQGNVCPLVNEVLRGLDITLVHDIVNMLIHGLQFVIKV
modifications: V5/6His tag
notes: rSPLUNC1 = V5/6His-tagged protein purified from HEK293 media
- α and γ ENaC cleavage by CAP2: only full-length α and γ ENaC subunits could be observed
